In assay [1] the target is T1, CLDN18.2 (species not stated).
T1 construct: whole, on cells; the form of the antigen in the ka/kd/KD measurement is not described; also called CLDN18.2过表达细胞; claudin18.2
Briefly: flow cytometry on CLDN18.2-overexpressing cells, MFI against antibody concentration. On the technique in general: Flow cytometry measures light scatter and fluorescence of single cells or particles in a stream.

Assay [2] has as its target T1, CLDN18.2 (species not stated at that …). Description: affinity measurement, method not described.

The term EC50 denotes the concentration that produces a half-maximal response. High values mean weaker potency, low ones greater potency. As usually defined, the Kd is the equilibrium constant for the complex coming apart. Read a low Kd as higher affinity. As a reminder, the koff is the first-order rate constant of dissociation. A high value points to fast dissociation. The kon is the second-order rate constant of association.

B1: 全人源抗CLDN18.2抗体2A2 (CLDN-BC-2A2-hH1) (antibody, V domains shown)
VH: QVQLQQWGPGLVKPSQTLSLTCTVSGGSISSVGYYWSWIRQHPGQGLEWVGYIYYSGGTYYNPSLKSRVTISLDTSKNQFSLKLTSVTAADTAVYYCASYGSVSPYYYYYGMDVWGQGTTVTVSS
VL: DIVMTQSPSSVSASVGDRVTITCRASQGISSWLAWYQQKPGKAPNLLISAASSLQSGVPSRFSGNGSGTDFTLTISSLQPEDFASYYCQQANSFPITFGQGTRLEIK
notes: The label 2A2-hIgG1 points to a human IgG1 full antibody; Made by transient expression in ExpiCHO; also called CLN-2A2-hH1; 2A2-hIgG1
Molecule B1 came in with a 50% effective concentration (EC50) in assay [1] of 0.62 µg/mL. In assay [2], this molecule registered a Kd of 5.24 nM, a koff of 0.00172 s⁻¹ and an on-rate constant (kon) of 328000 M⁻¹ s⁻¹.

The values are drawn from patent publication CN117567617A (CHINA RESOURCES BIOMEDICAL CO LTD, dated 2024).
